Data published in patent US12297265B2, “Antibody and use thereof” (SICHUAN KELUN-BIOTECH BIOPHARMACEUTICAL CO., LTD., priority 2018, dated 2025).

Key:
L929-Claudin 18.2 cells = assay: NK cell mediated ADCC on L929-Claudin 18.2 cells (LDH); assay type: cell-based; settings: L929-Claudin 18.2 target cells, NK92MI-CD16a effector cells
Method: (§1) The steps were as follows: HEK293T-Claudin 18.2, L929-Claudin 18.2, KATOIII-Claudin 18.2 and NUGC-4 cells were harvested and centrifuged followed by adjustment of cell density. 1×10^4/well of cells were plated on a plate and incubated overnight. The medium was removed on the next day. NK92MI-CD16a cells (Huabo Biopharm) were centrifuged, resuspended in MEMA medium and adjusted to 1×10^6/mL, then 50 μL/well cells were added to the corresponding wells. […] For HEK293T-Claudin18.2, L929-Claudin18.2 and KATOIII-Claudin18.2 cells, ten antibody concentrations were tested, starting from 40 μg/mL with 5-fold dilution. For NUGC-4 cells, eleven antibody concentrations were tested, starting from 2 mg/mL with 5-fold dilution. 50 μL/well of the diluted antibodies were added to the corresponding wells and the reactions were left to stand in incubator at 37° C., 5% CO2 and incubated for 5.5h. Lysis buffer was then added to the positive control well and incubated for another 0.5h. 50 μL/well of Lactate Dehydrogenase (LDH) detection agent (DOJINDO LABORATORISE, CK12) were added to the wells and the absorbance at 490 nm were taken every 10 min on a plate reader (MD, SpectraMax M2). The results were imported into Graphpad Prism for curve fitting.

NUGC-4 cells = assay: NK cell mediated ADCC on NUGC-4 cells (LDH); assay type: cell-based, human; settings: NUGC-4 target cells, NK92MI-CD16a effector cells
Method: as §1

[1] = Pharmacokinetics in SCID mice; assay type: in vivo; settings: 10 mg/kg intravenously
Method: Blood samples were taken 8 h, 1 d, 3 d, 8 d and 15 d after injection and serum antibody concentrations were determined by Cellular ELISA as described in Example 8. […] The data of mouse serum was subjected to curve fitting.

human Claudin18.2 [2] = molecular target: T1, human Claudin18.2 (Homo sapiens, UniProt P56856); assay: FACS positive rate of NUGC-4 cells; assay type: binding; design: cell lines endogenously expressing human Claudin18.2; host or cells: NUGC-4 human gastric cancer cell line; settings: NUGC-4 cells endogenously expressing human Claudin18.2, FACS
Method: (§2) To determine binding affinity of the candidate antibodies to cell lines endogenously expressing human Claudin18.2, FACS analysis was performed to detect human Claudin18.2 expression level on NUGC-4 cells (purchased from Japan JCRB cell bank, catalog number: JCRB0834) which endogenously expresses human Claudin18.2. […] The binding affinity between candidate antibodies and NUGC-4 cells was then determined by Cellular ELISA following the same protocol as above.

human Claudin18.2 [3] = molecular target: T1, human Claudin18.2; assay: Cellular ELISA on NUGC-4 cells; assay type: binding; design: cell lines endogenously expressing human Claudin18.2; host or cells: NUGC-4 human gastric cancer cell line
Method: Human Claudin18.2 is a four transmembrane protein and has a complex structure. Cellular ELISA was thus carried out to maintain the structure of Claudin18.2. The stable cell line L929-Claudin 18.2 constructed in Example 1 were used for detection. Specifically, L929-Claudin 18.2 adherent cells were detached by 2 mM EDTA treatment. The cells were resuspended and adjusted to 2×10^5/mL and 100 μL of the resuspension was plated into 96 well plate and incubated overnight at 37° C. The next day, the media was removed, and the plate was washed with PBS once. 100 μL/well 4% formaldehyde was added to the plate. After 30 min of incubation at room temperature, formaldehyde was removed, followed by washing twice with PBS. […] The absorbance at 450 nm was read on a plate reader (MD, SpectraMax M2) and the results were subjected to curve fitting by Graphpad Prism.
as §2

human Claudin18.2 [4] = molecular target: T1, human Claudin18.2; assay: FACS affinity of chimeric antibodies to Ba/F3-Claudin18.2 cells; assay type: binding; design: expressed in transfected cells; host or cells: Ba/F3 (BaF/3, DSMZ ACC300), hygromycin-selected monoclonal line
Source text: The amino acid sequence of the light chain variable region of 1E9.2, 2C6.9, 6B9.22, 9C8.1, 16A9.11, 19G10.14 or 19H11.6 was linked to the amino acid sequence of the light chain constant region κ (SEQ ID NO: 43) respectively; the amino acid sequence of the heavy chain variable region was linked to the amino acid sequence of IgG1 heavy chain constant region (SEQ ID NO: 42) respectively, to construct the chimeric antibody. Codon optimized cDNA was synthesized and cloned to pcDNA3.4 (synthesized by Nanjing Genscript Biotech Corporation). The pcDNA3.4 plasmids coding the light chain and heavy chain of each antibody were co-transfected to Expi293F cells (purchased from Thermo Fisher). The antibodies were purified from culture supernatant by protein A (MabSelect SuRe, GE). And the purified chimeric antibodies were named 1E9.2-hz00, 2C6.9-hz00, 6B9.22-hz00, 9C8.1-hz00, 16A9.11-hz00, 19G10.14-hz00 and 19H11.6-hz00.
The affinity of the anti-Claudin18.2 chimeric antibodies to Ba/F3-Claudin18.2 cells were determined. […] The cells were then analyzed by FACS.

For “IMAB362: Zolbetuximab (IMAB362) developed by Astellas, human-mouse chimeric IgG1 antibody targeting Claudin 18.2; control antibody, sequences from CN 101312989 B [reference compound]”, the “Max. Cytotoxicity” value (L929-Claudin 18.2 cells) was 52%, the “Max. Cytotoxicity” value (NUGC-4 cells) was 35% and the AUC [1] was 7391.22 µg·h/mL. For the same substance, the “NUGC-4 cells tested positive for Claudin 18.2” value (human Claudin18.2 [2]) was 20%, the “OD450 (Max signal value)” value (human Claudin18.2 [3]) was “Not detected” and the “Max MFI” value (human Claudin18.2 [4]) was 8.97 ×10^6.
